Measured values as given in patent publication US20100062462.
Where a chain is given by its changes, count along the chain named.

Tests used:
procaspase-8 p18 subunit = system: T1, procaspase-8 p18 subunit
T1 sequence: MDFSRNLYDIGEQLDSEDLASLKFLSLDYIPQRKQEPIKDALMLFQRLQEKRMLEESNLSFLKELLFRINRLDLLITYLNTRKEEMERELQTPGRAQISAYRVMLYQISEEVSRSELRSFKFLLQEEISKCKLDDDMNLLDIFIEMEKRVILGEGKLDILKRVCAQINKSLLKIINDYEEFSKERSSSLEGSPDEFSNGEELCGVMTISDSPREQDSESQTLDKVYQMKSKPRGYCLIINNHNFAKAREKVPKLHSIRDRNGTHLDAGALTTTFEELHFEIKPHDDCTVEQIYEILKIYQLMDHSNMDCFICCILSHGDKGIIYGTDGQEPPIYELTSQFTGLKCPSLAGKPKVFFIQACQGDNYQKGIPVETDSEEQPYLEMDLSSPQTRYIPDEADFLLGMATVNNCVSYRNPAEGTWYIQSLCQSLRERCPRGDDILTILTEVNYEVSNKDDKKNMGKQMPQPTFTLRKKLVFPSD

[1] = system: T2, Flag-procaspase-8-Myc fusion polypeptide
T2 sequence: T1 sequence

[2] = system: T3, procaspase-8 F355R, F356N
T3 sequence: T1 sequence with F355R, F356N

## HIV-1 protease
procaspase-8 p18 subunit
  cleavage (LC-MS of the cleaved p18 fragment): This fragment had a weight of 16158 mass units (cleaved form)
[1]
  cleavage (autoradiography): Incubation of wild-type procaspase-8 with HIV protease resulted in a p41 procaspase-8 fragment
[2]
  cleavage (autoradiography): an almost negligible amount of cleavage was observed when procaspase-8 F355R, F356N was incubated with HIV protease

## renin
[1]
  cleavage (autoradiography): another aspartyl protease, renin, did not cause procaspase 8 cleavage
